# Reference: US12344663B2, “Anti-C3 antibodies and antigen-binding fragments thereof and their uses for treating eye or ocular diseases” (CDR-Life AG, priority 2021, dated 2025)
# B1: Clone I: humanized anti-C3 scFv, VH SEQ ID NO: 20, VL SEQ ID NO: 21; scFv SEQ ID NO: 26 or 27 (antibody, V domains shown)
# VH: QVQLVESGGGSVQPGRSLRLSCAASGFTFSNYAMNWVRQAPGKGLEWVAVISYDGSNKYYADSVKGRFTISRDNSKNTLYLQMNSLRAEDTASYYCARAVGYHHARLDPWGCGTSVTVSS
# VL: QLVLTQSPSASASLGASVKLTCTLSSAHKTYTIDWYQQQPEKCPRYLMQLKSDGSYTKGSGIPDRFSGSSSGAERYLTISSLQSEDEADYYCGTEGVGGYVFGGGTKLTVLG
# modifications: VH; VL
# Tested on: pre-existing ADA
# Experiment: Bridging ELISA screen for pre-existing ADA in sera of healthy human donors
# Settings: 10% serum of healthy human donors
# From the text: The inventors screen sera of healthy human donors for pre-existing ADA against Clone I using a bridging ELISA. Pre-existing ADAs present in serum from healthy human donors are bound by immobilized anti-C3 scFv. In a next step, ADAs are bound by the same anti-C3 scFv labeled with biotin and are detected by HRP-conjugated Streptavidin.
# The scFv is biotin-labeled using the “Biotin Conjugation Kit (Fast, Type A)-Lightning-Link”-Kit (Expedeon/Abcam) following the suppliers' instructions. The unlabeled scFv is diluted to 0.5 μg/ml in PBS, 50 μl per well transferred to a 96 well plate and incubated overnight at 4° C. On the next day, the 96 well plate is washed with wash buffer (3×320 μl, 0.05% Tween 20 in PBS pH 7.4) and non-specific binding sites are blocked with 300 μl/well blocking buffer (SuperBlock Blocking Buffer; ThermoFisher scientific) for 30 min at room temperature. The wells are then washed with wash buffer (3×320 μl/well)
# Human serum from healthy volunteers is diluted to 10% in PBS, 50 μl/well are added to the 96 well plate and the plate incubated for 1 hr at room temperature. […]
# The plate is washed (3×320 μl/well wash buffer), 50 μl/well TMB substrate (Invitrogen) is added and incubated for 5 min at room temperature. […] The absorption is measured at 450 nm. […]
molecule,measurement,value
B1,Serum samples with pre-existing ADA,9 out of 50
